Measurements as given in patent publication US12226490B2, “Anti-ROR1 antibody conjugates, compositions comprising anti ROR1 antibody conjugates, and methods of making and using anti-ROR1 antibody conjugates preliminary class” (Sutro Biopharma, Inc., priority 2022, dated 2025).

How the values were obtained:
[1] = target: T1, human ROR1-Fz (Homo sapiens, UniProt Q01973); assay: Biacore off-rate and kinetic analysis, ROR1 frizzled domain; format: binding; settings: Table 11 (SP34 light chain)
T1 construct: Frizzled (Fz, residues 165-305); HIS6 (C); purchased Acro Biosystems; host or cells: HEK293
Protocol: Anti-Fc polyclonal antibodies were immobilized onto a CM5 chip (GE Life Sciences) using amine coupling chemistry (from Amine Coupling Kit, GE Life Sciences). The immobilization steps were carried out at a flow rate of 25 μL/min in 1×HBS-EP+ buffer (GE Life Sciences; 10× Stock diluted before use). The sensor surfaces were activated for 7 min with a mixture of NHS (0.05 M) and EDC (0.2 M). The Anti-Fc antibodies were injected over all 4 flow cells at a concentration of 25 ug/ml in 10 mM sodium acetate, pH 4.5, for 7 min. Ethanolamine (1 M, pH 8.5) was injected for 7 min to block any remaining activated groups. An average of 12,000 response units (RU) of capture antibody was immobilized on each flow cell.
Off-rate and kinetic binding experiments were performed at 25° C. using 1×HBS-EP+ buffer. Test and control antibodies were injected over the anti-Fc surface at concentrations of 5-10 μg/mL for 12 seconds at a flow rate of 10 μL/min on flow cells 2, 3 and 4, followed by a buffer wash for 30 seconds at the same flow rate. Kinetic characterization of antibody samples was carried out with a range of antigen concentrations from 1-100 nM and 1 injection of 0 nM antigen (for example, 100, 50, 25, 6.25, 1.56 and 0 nM). After capturing ligand (antibody) on the anti-Fc surface, the analyte (hROR1, Fz or Kr domains, Acro Biosystems, Delaware) was bound for 180 seconds, followed by a 600 second dissociation phase at a flow rate of 50 μL/min. Between each ligand capture and analyte binding cycle, regeneration was carried out using 2 injections of 10 mM Glycine pH 2.0 for 30 seconds at 30 μL/min, followed by a 30 second buffer wash step.
The data was fit with the Biacore T200 Evaluation software, using a 1-1 Langmuir binding model. KD (affinity, nM) was determined as a ratio of the kinetic rate constants calculated from the fits of the association and dissociation phases.
For anti-CD3-LC-containing IgGs that had detectable ROR1-binding in ELISA (1944-A07 and 1987-C05 variants), those antibodies were further tested for binding by surface plasmon resonance (SPR). Binding kinetics were assessed to the ROR1-frizzled domain (hROR1-Fz) or the ROR1-extracellular domain (hROR1) for 1944-A07 and 1987-C05 variants, respectively. Briefly, anti-ROR1 antibodies were captured via anti-human Fc polyclonal antibodies immobilized to a CM5 chip, and ROR1 recombinant proteins were flowed across the surface to assess binding kinetics. hROR1 or hROR1-Fz domain (Acro Biosystems, Delaware) binding was tested at 100, 50, 25, 6.25, 1.5625 nM. The data was fit with the Biacore™ T200 Evaluation software, using a 1-1 Langmuir binding model. KD (affinity, nM) was determined as a ratio of the kinetic rate constants calculated from the fits of the association and dissociation phases.

[2] = Differential scanning fluorimetry (protein thermal shift; TM1 Fc, TM2 Fab); format: physicochemical; settings: melting temperature of the Fab domain; Table 11
Protocol: A protein thermal shift assay was carried out by mixing the protein to be assayed with an environmentally sensitive dye (SYPRO Orange, Life Technologies Cat #S-6650) in a phosphate buffered solution (PBS), and monitoring the fluorescence of the mixture in real time as it underwent controlled thermal denaturation. Protein solutions between 0.2-2 mg/mL were mixed at a 1-1 volumetric ratio with a 1-500 PBS-diluted solution of SYPRO Orange (SYPRO Orange stock dye is 5000× in DMSO). 10 μL aliquots of the protein-dye mixture were dispensed in quadruplicate in a 384-well microplate (Bio-Rad Cat #MSP-3852), and the plate was sealed with an optically clear sealing film (Bio-Rad Cat #MSB-1001) and placed in a 384-well plate real-time thermocycler (Bio-Rad CFX384 Real Time System). The protein-dye mixture was heated from 25° C. to 95° C., at increments of 0.1° C. per cycle (˜1.5° C. per minute), allowing 3 seconds of equilibration at each temperature before taking a fluorescence measurement. At the end of the experiment, the transition melting temperatures (TM1 and TM2) were determined using the Bio-Rad CFX manager software. TM1 represents the melting temperature of the Fc domain. TM2 represents the melting temperature of the Fab domain.
For the thermal stability of an antibody, the first melting peak (Tm1) coincides with the unfolding of the CH2 domain (FC stability), while the second melting peak (Tm2) occurs upon unfolding of the Fab domain.

T1 sequence (Q01973 165-305): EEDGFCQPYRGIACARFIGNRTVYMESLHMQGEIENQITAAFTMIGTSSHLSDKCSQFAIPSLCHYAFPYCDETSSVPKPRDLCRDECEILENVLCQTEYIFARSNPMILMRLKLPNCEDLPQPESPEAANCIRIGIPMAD

Molecule	Biacore human ROR1-Fz ka [1]	Biacore human ROR1-Fz kd [1]	TM2 [2]
SRP2196-B03 (antibody, V domains shown) VH: EVQLVESGGGLAQPGGSLRLSCAASGFNITGYYIHWVRQAPGKGLEWVGYISPNSGATHYADSVKGRFTISADTSKNTAYLQMNSLRAEDTAVYYCARDSRRYVRPFDYWGQGTLVTVSS VL: QAVVTQESALTTSPGETVTLTCRSSTGAVTTSNYANWVQEKPDHLFTGLIGGTNKRAPGVPARFSGSLIGDKAALTITGAQTEDEAIYFCALWYSNLWVFGGGTKLTVL	124000 M⁻¹ s⁻¹	0.000945 s⁻¹	71 °C
SRP2196-B10 (antibody, V domains shown) VH: EVQLVESGGGLVQPGGSLRLSCAASGFNITGYYIHWVRQAPGKGLEWVGSITPLSGATSKADSVKGRFTISADTSKNTAYLQMNSLRAEDTAVYYCARDSRRYIRSWDYWGQGTLVTVSS VL: QAVVTQESALTTSPGETVTLTCRSSTGAVTTSNYANWVQEKPDHLFTGLIGGTNKRAPGVPARFSGSLIGDKAALTITGAQTEDEAIYFCALWYSNLWVFGGGTKLTVL	128000 M⁻¹ s⁻¹	0.000334 s⁻¹	70 °C
SRP2196-B04 (antibody, V domains shown) VH: EVQLVESGGGLVQPGGSLRLSCAASGFNITEYYIHWVRQAPGKGLEWVGYISPNSGATYQADSVKGRFTISADTSKNTAYLQMNSLRAEDTAVYYCARDSRRYVRGWDYWGQGTLVTVSS VL: QAVVTQESALTTSPGETVTLTCRSSTGAVTTSNYANWVQEKPDHLFTGLIGGTNKRAPGVPARFSGSLIGDKAALTITGAQTEDEAIYFCALWYSNLWVFGGGTKLTVL	127000 M⁻¹ s⁻¹	0.000352 s⁻¹	72 °C
SRP2196-B11 (antibody, V domains shown) VH: EVQLVESGGGLVQPGGSLRLSCAASGFNITGYYIHWVRQAPGRGLEWVGQISPNSGYTYYADSVKGRFTISADTSKNTAYLQMNSLRAEDTAVYYCARDSRRYIRSWDYWGQGTLVTVSS VL: QAVVTQESALTTSPGETVTLTCRSSTGAVTTSNYANWVQEKPDHLFTGLIGGTNKRAPGVPARFSGSLIGDKAALTITGAQTEDEAIYFCALWYSNLWVFGGGTKLTVL	137000 M⁻¹ s⁻¹	0.000597 s⁻¹	74 °C
SRP2196-B08 (antibody, V domains shown) VH: EVQLVESGGGLVQPGGSLRLSCAASGFNITGYYIHWVRQAPGKGLEWVGQISPNSGYTYLADSVKGRFTISADTSKNTAYLQMNSLRAEDTAVYYCARDSRRYVRGWDYWGQGTLVTVSS VL: QAVVTQESALTTSPGETVTLTCRSSTGAVTTSNYANWVQEKPDHLFTGLIGGTNKRAPGVPARFSGSLIGDKAALTITGAQTEDEAIYFCALWYSNLWVFGGGTKLTVL	156000 M⁻¹ s⁻¹	0.000488 s⁻¹	75 °C
SRP2196-B09 (antibody, V domains shown) VH: EVQLVESGGGLVQPEGSLRLSCAASGFNITEYYIHWVRQAPGKGLEWVGYISPNSGSTYYADSVKGRFTISADTSKNTAYLQMNSLRAEDTAVYYCARDSRRYVRSWDYWGQGTLVTVSS VL: QAVVTQESALTTSPGETVTLTCRSSTGAVTTSNYANWVQEKPDHLFTGLIGGTNKRAPGVPARFSGSLIGDKAALTITGAQTEDEAIYFCALWYSNLWVFGGGTKLTVL	130000 M⁻¹ s⁻¹	0.000427 s⁻¹	72 °C

More lines, main results first:

Biacore human ROR1-Fz ka [1]	Biacore human ROR1-Fz kd [1]	Molecule	TM2 [2]
150000 M⁻¹ s⁻¹	0.000568 s⁻¹	SRP2196-A09 (antibody, V domains shown) VH: EVQLVESGGGLVQPGGSLRLSCAASGFNITGYYIHWVRQAPGKGLEWVGQISPNSGATHYADSVKGRFTISADTSKNTAYLQMNSLRAEDTAVYYCARDSRRYIRSWDYWGQGTLVTVSS VL: QAVVTQESALTTSPGETVTLTCRSSTGAVTTSNYANWVQEKPDHLFTGLIGGTNKRAPGVPARFSGSLIGDKAALTITGAQTEDEAIYFCALWYSNLWVFGGGTKLTVL	75 °C
163000 M⁻¹ s⁻¹	0.000227 s⁻¹	SRP2196-B02 (antibody, V domains shown) VH: EVQLVESGGGLVQPGGSLRLSCAASGFNITQYYIHWVRQAPGKGLEWVGYISPNSGQTYDADSVKGRFTISADTSKNTAYLQMNSLRAEDTAVYYCARDSRRYVRSWDYWGQGTLVTVSS VL: QAVVTQESALTTSPGETVTLTCRSSTGAVTTSNYANWVQEKPDHLFTGLIGGTNKRAPGVPARFSGSLIGDKAALTITGAQTEDEAIYFCALWYSNLWVFGGGTKLTVL	69 °C
172000 M⁻¹ s⁻¹	0.000479 s⁻¹	SRP2196-A10 (antibody, V domains shown) VH: EVQLVESGGGLVQPGGSLRLSCAASGFNITGYYIHWVRQAPGKGLEWVGYISPNSGATHYADSVKGRFTISADISKNTAYLQMNSLRAEDTAVHYCARDSRRYVRSWDYWGQGTLVTVSS VL: QAVVTQESALTTSPGETVTLTCRSSTGAVTTSNYANWVQEKPDHLFTGLIGGTNKRAPGVPARFSGSLIGDKAALTITGAQTEDEAIYFCALWYSNLWVFGGGTKLTVL	68 °C
131000 M⁻¹ s⁻¹	0.000401 s⁻¹	SRP2196-B01 (antibody, V domains shown) VH: EVQLVESGGGLVQPGGSLRLSCAASGFNITGYYIHWVRQAPGKGLEWVGQISPNSGYTYYADSVKGRFTISADTSKNTTYLQMNSLRAEDTAVYYCARDSRRYVRSWDYWGQGTLVTVSS VL: QAVVTQESALTTSPGETVTLTCRSSTGAVTTSNYANWVQEKPDHLFTGLIGGTNKRAPGVPARFSGSLIGDKAALTITGAQTEDEAIYFCALWYSNLWVFGGGTKLTVL	75 °C
191000 M⁻¹ s⁻¹	0.000792 s⁻¹	SRP2196-A11 (antibody, V domains shown) VH: EVQLVESGGGLVQPGGSLRLSCAASGFNITGYYIHWVRQAPGKGLEWVGQISPNSGTTYDADSVKGRFTISADTSKNTAYLQMNSLRAEDTAVYYCARDSRRYVRGWDYWGQGTLVTVSS VL: QAVVTQESALTTSPGETVTLTCRSSTGAVTTSNYANWVQEKPDHLFTGLIGGTNKRAPGVPARFSGSLIGDKAALTITGAQTEDEAIYFCALWYSNLWVFGGGTKLTVL	73 °C
142000 M⁻¹ s⁻¹	0.000423 s⁻¹	SRP2196-B06 (antibody, V domains shown) VH: EVQLVESGGGLVQPGGSLRLSCAASGFNITGYYIHWVRQAPGKGLEWVGQISPNSGSTYSADSVKGRFTISADTSKNTAYLQMNSLRAEDTAVYYCARDSRRYVLSWDYWGQGTLVTVSS VL: QAVVTQESALTTSPGETVTLTCRSSTGAVTTSNYANWVQEKPDHLFTGLIGGTNKRAPGVPARFSGSLIGDKAALTITGAQTEDEAIYFCALWYSNLWVFGGGTKLTVL	70 °C
